Laboratory results reported in patent US20140087995A1 (published 2014).
Numbered stars: 1 amine (or outer) side, 2 acyl side, 3 side chain; on linkers, the order of the positions; unused ones are H or OH. Bridge positions count the residues as written; N and C are the ends. Side chains are listed from the residue outwards. Ends that are not written are not given here. * marks the point of attachment. C20 diacid = O=C(O)CCCCCCCCCCCCCCCCCCC(=O)*; γGlu = O=C(O)[C@H](CCC(=O)[*:2])N[*:1]

T1: human calcitonin receptor (human, UniProt P30988 25-474)
T1 sequence (looked up): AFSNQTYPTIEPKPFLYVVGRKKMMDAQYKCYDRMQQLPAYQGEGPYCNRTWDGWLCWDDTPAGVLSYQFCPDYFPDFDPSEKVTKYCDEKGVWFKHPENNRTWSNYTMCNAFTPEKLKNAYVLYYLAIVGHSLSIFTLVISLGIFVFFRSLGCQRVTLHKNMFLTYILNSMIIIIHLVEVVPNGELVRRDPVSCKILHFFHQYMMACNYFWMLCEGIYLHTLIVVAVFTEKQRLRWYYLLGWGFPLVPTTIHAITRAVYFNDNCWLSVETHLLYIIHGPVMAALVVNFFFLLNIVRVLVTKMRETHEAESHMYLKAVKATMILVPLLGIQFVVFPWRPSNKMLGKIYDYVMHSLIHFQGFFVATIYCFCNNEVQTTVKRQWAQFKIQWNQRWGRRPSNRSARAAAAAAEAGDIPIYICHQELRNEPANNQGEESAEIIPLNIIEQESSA

T2: human amylin 3(a) receptor (human calcitonin receptor plus RAMP-3) (human, UniProt P30988 25-474; O60896 24-148, limits assumed)
T2 sequence (looked up) 1: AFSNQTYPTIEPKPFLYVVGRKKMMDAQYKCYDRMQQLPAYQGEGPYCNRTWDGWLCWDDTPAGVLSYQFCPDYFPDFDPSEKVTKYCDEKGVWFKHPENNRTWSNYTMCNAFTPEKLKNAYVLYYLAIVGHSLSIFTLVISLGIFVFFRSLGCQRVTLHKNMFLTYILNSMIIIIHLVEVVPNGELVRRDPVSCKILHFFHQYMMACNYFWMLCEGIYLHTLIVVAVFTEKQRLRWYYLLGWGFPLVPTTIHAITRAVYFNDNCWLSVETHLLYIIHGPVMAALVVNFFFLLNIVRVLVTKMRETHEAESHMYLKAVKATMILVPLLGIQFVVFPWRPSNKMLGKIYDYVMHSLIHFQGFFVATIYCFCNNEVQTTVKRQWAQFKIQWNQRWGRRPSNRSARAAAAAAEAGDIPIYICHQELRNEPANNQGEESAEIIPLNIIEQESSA
T2 sequence (looked up) 2: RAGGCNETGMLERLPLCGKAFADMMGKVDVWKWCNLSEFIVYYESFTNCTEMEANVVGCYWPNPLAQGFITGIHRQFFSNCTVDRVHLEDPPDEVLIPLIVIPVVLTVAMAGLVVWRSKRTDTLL


How the values were obtained:
[1] = biological target: T1, human calcitonin receptor; assay: cell-based or functional assay
[2] = biological target: T2, human amylin 3(a) receptor (human …); assay: cell-based or functional assay
[3] = biological target: T2, human amylin 3(a) receptor (human …); assay: SPA competition binding, displacement of 125I-rat amylin from membranes of Amylin 3(a)/CRE-luc BHK cells (Assay V)
Summary of the method: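 Membranes from BHK Amylin 3(a)/CRE-luc cells (35 ng/μL final) were mixed with SPA beads and test compounds in 50 mM Hepes pH 7.4 with 1 mM CaCl2, 5 mM MgCl₂, 0.1% OA and 0.02% Tween20. Incubation ran 120 min at 25° C with shaking; IC₅₀ came from one-site competition fitting.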

Row | Binder | hCTR funct. EC50 [1] [nM] | Ratio hCT/hAmylin funct. [2] | hAmylin-R funct. EC50 [2] [nM] | IC50 [3] [nM]
1 | K([γGlu-γGlu-C20 diacid])CNTATCATQRLAEFLRHSSPNFGAIPSSTNVGHNTY-NH2 (disulfide 2-7; N-terminus assumed; SMILES CC[C@H](C)[C@H](NC(=O)[C@H](C)NC(=O)CNC(=O)[C@H](Cc1ccccc1)NC(=O)[C@H](CC(N)=O)NC(=O)[C@@H]1CCCN1C(=O)[C@H](CO)NC(=O)[C@H](CO)NC(=O)[C@H](Cc1c[nH]cn1)NC(=O)[C@H](CCCNC(=N)N)NC(=O)[C@H](CC(C)C)NC(=O)[C@H](Cc1ccccc1)NC(=O)[C@H](CCC(=O)O)NC(=O)[C@H](C)NC(=O)[C@H](CC(C)C)NC(=O)[C@H](CCCNC(=N)N)NC(=O)[C@H](CCC(N)=O)NC(=O)[C@@H](NC(=O)[C@H](C)NC(=O)[C@@H]1CSSC[C@H](NC(=O)[C@@H](N)CCCCNC(=O)CC[C@H](NC(=O)CC[C@H](NC(=O)CCCCCCCCCCCCCCCCCCC(=O)O)C(=O)O)C(=O)O)C(=O)N[C@@H](CC(N)=O)C(=O)N[C@@H]([C@@H](C)O)C(=O)N[C@@H](C)C(=O)N[C@@H]([C@@H](C)O)C(=O)N1)[C@@H](C)O)C(=O)N1CCC[C@H]1C(=O)N[C@@H](CO)C(=O)N[C@@H](CO)C(=O)N[C@H](C(=O)N[C@@H](CC(N)=O)C(=O)N[C@H](C(=O)NCC(=O)N[C@@H](Cc1c[nH]cn1)C(=O)N[C@@H](CC(N)=O)C(=O)N[C@H](C(=O)N[C@@H](Cc1ccc(O)cc1)C(N)=O)[C@@H](C)O)C(C)C)[C@@H](C)O, also called compound 87) | 1.09 | 3.8 | 0.285 | 0.633
2 | K([γGlu-γGlu-C20 diacid])CNTATCATQRLAEFLRHSSPNFGAIPSSTNVGHETY-NH2 (disulfide 2-7; N-terminus assumed; SMILES CC[C@H](C)[C@H](NC(=O)[C@H](C)NC(=O)CNC(=O)[C@H](Cc1ccccc1)NC(=O)[C@H](CC(N)=O)NC(=O)[C@@H]1CCCN1C(=O)[C@H](CO)NC(=O)[C@H](CO)NC(=O)[C@H](Cc1c[nH]cn1)NC(=O)[C@H](CCCNC(=N)N)NC(=O)[C@H](CC(C)C)NC(=O)[C@H](Cc1ccccc1)NC(=O)[C@H](CCC(=O)O)NC(=O)[C@H](C)NC(=O)[C@H](CC(C)C)NC(=O)[C@H](CCCNC(=N)N)NC(=O)[C@H](CCC(N)=O)NC(=O)[C@@H](NC(=O)[C@H](C)NC(=O)[C@@H]1CSSC[C@H](NC(=O)[C@@H](N)CCCCNC(=O)CC[C@H](NC(=O)CC[C@H](NC(=O)CCCCCCCCCCCCCCCCCCC(=O)O)C(=O)O)C(=O)O)C(=O)N[C@@H](CC(N)=O)C(=O)N[C@@H]([C@@H](C)O)C(=O)N[C@@H](C)C(=O)N[C@@H]([C@@H](C)O)C(=O)N1)[C@@H](C)O)C(=O)N1CCC[C@H]1C(=O)N[C@@H](CO)C(=O)N[C@@H](CO)C(=O)N[C@H](C(=O)N[C@@H](CC(N)=O)C(=O)N[C@H](C(=O)NCC(=O)N[C@@H](Cc1c[nH]cn1)C(=O)N[C@@H](CCC(=O)O)C(=O)N[C@H](C(=O)N[C@@H](Cc1ccc(O)cc1)C(N)=O)[C@@H](C)O)C(C)C)[C@@H](C)O) | 7.05 |  | 0.445 | 0.525
3 | K([γGlu-γGlu-C20 diacid])CNTATCATQRLAEFLRHSSPNFGAIPSSTNVGPHTY-NH2 (disulfide 2-7 (inferred)) | 2.83 |  | 0.172 | 0.377
4 | K([γGlu-γGlu-C20 diacid])CNTATCATQRLAEFLRHSSPNFGAIPSSTNVGPRTY-NH2 (disulfide 2-7; N-terminus assumed; SMILES CC[C@H](C)[C@H](NC(=O)[C@H](C)NC(=O)CNC(=O)[C@H](Cc1ccccc1)NC(=O)[C@H](CC(N)=O)NC(=O)[C@@H]1CCCN1C(=O)[C@H](CO)NC(=O)[C@H](CO)NC(=O)[C@H](Cc1c[nH]cn1)NC(=O)[C@H](CCCNC(=N)N)NC(=O)[C@H](CC(C)C)NC(=O)[C@H](Cc1ccccc1)NC(=O)[C@H](CCC(=O)O)NC(=O)[C@H](C)NC(=O)[C@H](CC(C)C)NC(=O)[C@H](CCCNC(=N)N)NC(=O)[C@H](CCC(N)=O)NC(=O)[C@@H](NC(=O)[C@H](C)NC(=O)[C@@H]1CSSC[C@H](NC(=O)[C@@H](N)CCCCNC(=O)CC[C@H](NC(=O)CC[C@H](NC(=O)CCCCCCCCCCCCCCCCCCC(=O)O)C(=O)O)C(=O)O)C(=O)N[C@@H](CC(N)=O)C(=O)N[C@@H]([C@@H](C)O)C(=O)N[C@@H](C)C(=O)N[C@@H]([C@@H](C)O)C(=O)N1)[C@@H](C)O)C(=O)N1CCC[C@H]1C(=O)N[C@@H](CO)C(=O)N[C@@H](CO)C(=O)N[C@H](C(=O)N[C@@H](CC(N)=O)C(=O)N[C@H](C(=O)NCC(=O)N1CCC[C@H]1C(=O)N[C@@H](CCCNC(=N)N)C(=O)N[C@H](C(=O)N[C@@H](Cc1ccc(O)cc1)C(N)=O)[C@@H](C)O)C(C)C)[C@@H](C)O, also called compound 110) | 8.16 |  | 0.278 | 0.326
5 | K([γGlu-γGlu-C20 diacid])CNTATCATQRLAEFLRHSSPNFGAIPSSTNVGSNTP-NH2 (disulfide 2-7 (inferred), also called compound 13) | 0.47 | 2.2 | 0.213 | 0.264

More lines, now with the values ahead:

Row | hCTR funct. EC50 [1] [nM] | Ratio hCT/hAmylin funct. [2] | hAmylin-R funct. EC50 [2] [nM] | IC50 [3] [nM] | Binder
6 | 11.2 | 27.8 | 0.404 | 1.16 | K([γGlu-γGlu-C20 diacid])CNTATCATQRLAEFLRHSSPNFGAIPSSTNVGSRTY-NH2 (disulfide 2-7; N-terminus assumed; SMILES CC[C@H](C)[C@H](NC(=O)[C@H](C)NC(=O)CNC(=O)[C@H](Cc1ccccc1)NC(=O)[C@H](CC(N)=O)NC(=O)[C@@H]1CCCN1C(=O)[C@H](CO)NC(=O)[C@H](CO)NC(=O)[C@H](Cc1c[nH]cn1)NC(=O)[C@H](CCCNC(=N)N)NC(=O)[C@H](CC(C)C)NC(=O)[C@H](Cc1ccccc1)NC(=O)[C@H](CCC(=O)O)NC(=O)[C@H](C)NC(=O)[C@H](CC(C)C)NC(=O)[C@H](CCCNC(=N)N)NC(=O)[C@H](CCC(N)=O)NC(=O)[C@@H](NC(=O)[C@H](C)NC(=O)[C@@H]1CSSC[C@H](NC(=O)[C@@H](N)CCCCNC(=O)CC[C@H](NC(=O)CC[C@H](NC(=O)CCCCCCCCCCCCCCCCCCC(=O)O)C(=O)O)C(=O)O)C(=O)N[C@@H](CC(N)=O)C(=O)N[C@@H]([C@@H](C)O)C(=O)N[C@@H](C)C(=O)N[C@@H]([C@@H](C)O)C(=O)N1)[C@@H](C)O)C(=O)N1CCC[C@H]1C(=O)N[C@@H](CO)C(=O)N[C@@H](CO)C(=O)N[C@H](C(=O)N[C@@H](CC(N)=O)C(=O)N[C@H](C(=O)NCC(=O)N[C@@H](CO)C(=O)N[C@@H](CCCNC(=N)N)C(=O)N[C@H](C(=O)N[C@@H](Cc1ccc(O)cc1)C(N)=O)[C@@H](C)O)C(C)C)[C@@H](C)O, also called compound 89)
7 | 2.36 |  | 0.225 | 0.121 | K([γGlu-γGlu-C20 diacid])CNTATCATQRLAEFLRHSSPNFGAIPSSTNVGPETY-NH2 (disulfide 2-7; N-terminus assumed; SMILES CC[C@H](C)[C@H](NC(=O)[C@H](C)NC(=O)CNC(=O)[C@H](Cc1ccccc1)NC(=O)[C@H](CC(N)=O)NC(=O)[C@@H]1CCCN1C(=O)[C@H](CO)NC(=O)[C@H](CO)NC(=O)[C@H](Cc1c[nH]cn1)NC(=O)[C@H](CCCNC(=N)N)NC(=O)[C@H](CC(C)C)NC(=O)[C@H](Cc1ccccc1)NC(=O)[C@H](CCC(=O)O)NC(=O)[C@H](C)NC(=O)[C@H](CC(C)C)NC(=O)[C@H](CCCNC(=N)N)NC(=O)[C@H](CCC(N)=O)NC(=O)[C@@H](NC(=O)[C@H](C)NC(=O)[C@@H]1CSSC[C@H](NC(=O)[C@@H](N)CCCCNC(=O)CC[C@H](NC(=O)CC[C@H](NC(=O)CCCCCCCCCCCCCCCCCCC(=O)O)C(=O)O)C(=O)O)C(=O)N[C@@H](CC(N)=O)C(=O)N[C@@H]([C@@H](C)O)C(=O)N[C@@H](C)C(=O)N[C@@H]([C@@H](C)O)C(=O)N1)[C@@H](C)O)C(=O)N1CCC[C@H]1C(=O)N[C@@H](CO)C(=O)N[C@@H](CO)C(=O)N[C@H](C(=O)N[C@@H](CC(N)=O)C(=O)N[C@H](C(=O)NCC(=O)N1CCC[C@H]1C(=O)N[C@@H](CCC(=O)O)C(=O)N[C@H](C(=O)N[C@@H](Cc1ccc(O)cc1)C(N)=O)[C@@H](C)O)C(C)C)[C@@H](C)O)
8 | 1.28 | 5.8 | 0.222 | 0.069 | K([γGlu-γGlu-C20 diacid])CNTATCATQRLAEFLRHSSPNFGAILSSTPVGPETY-NH2 (disulfide 2-7 (inferred))
